The subject of one data set is MCF7. Briefly: percentage of EdU-negative (G0-arrested) nuclei per well, 72 h; higher = more G0 arrest. The conditions noted are these: reference: sequence is the full UniProt precursor, the tested protein was the secreted form or ectodomain.
In a further data set the test system is hTERT-HMEC. The data set is described as above. The conditions noted are these: reference: sequence is the full UniProt precursor, the tested protein was the secreted form or ectodomain.
The mark [1] stands for this setting: protein concentration 0.01625 µM.
The mark [2] stands for this setting: protein concentration 0.1625 µM.
The mark [3] stands for this setting: protein concentration 0.0225 µM.
Setting [4] is: protein concentration 0.03125 µM.
[5] abbreviates: protein concentration 0.3125 µM.
Setting [6] is: protein concentration 0.0220325 µM.
Where [7] appears, read: protein concentration 0.220325 µM.
[8] abbreviates: protein concentration 0.0185 µM.

± gives the standard deviation of the averaged measurements.
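Also: secreted proteins added to cultured cells, EdU pulse at the end, nuclei found by Hoechst imaging, EdU status from nuclear versus surrounding ring intensity ratio, PBS as neutral control.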

With “MQVSTAALAVLLCTMALCNQFSASLAADTPTACCFSYTSRQIPQNFIADYFETSSQCSKPGVIFLTKRSRQVCADPSEEWVQKYVSDLELSA”, the “percentage of EdU-negative” value with MCF7 (setting [1]) worked out at 25.6 ± 0.31%; in the data set with MCF7 (setting [2]), 25.3 ± 0.67%; with hTERT-HMEC (setting [1]) it was 4.43 ± 0.47%; with hTERT-HMEC (setting [2]) it was 5.62 ± 0.9%.
For the sequence “MAFRGWRPPPPPLLLLLLWVTGQAAPVAGLGSDAELQIERRFVPDECPRTVRSGDFVRYHYVGTFPDGQKFDSSYDRDSTFNVFVGKGQLITGMDQALVGMCVNERRFVKIPPKLAYGNEGVSGVIPPNSVLHFDVLLMDIWNSEDQVQIHTYFKPPSCPRTIQVSDFVRYHYNGTFLDGTLFDSSHNRMKTYDTYVGIGWLIPGMDKGLLGMCVGEKRIITIPPFLAYGEDGDGKDIPGQASLVFDVALLDLHNPKDSISIENKVVPENCERISQSGDFLRYHYNGTLLDGTLFDSSYSRNRTFDTYIGQGYVIPGMDEGLLGVCIGEKRRIVVPPHLGYGEEGRGNIPGSAVLVFDIHVIDFHNPSDSISITSHYKPPDCSVLSKKGDYLKYHYNASLLDGTLLDSTWNLGKTYNIVLGSGQVVLGMDMGLREMCVGEKRTVIIPPHLGYGEAGVDGEVPGSAVLVFDIELLELVAGLPEGYMFIWNGEVSPNLFEEIDKDGNGEVLLEEFSEYIHAQVASGKGKLAPGFDAELIVKNMFTNQDRNGDGKVTAEEFKLKDQEAKHDEL”, the “percentage of EdU-negative” value in the data set on MCF7 (setting [3]) came to 29.6 ± 1.2%; with MCF7 (protein concentration 0.225 µM), 28.6 ± 3%; in the data set on hTERT-HMEC (setting [3]), 5.15 ± 0.31%; in the data set on hTERT-HMEC (protein concentration 0.225 µM), 25.4 ± 1.1%.
Turning to “MKFTIVFAGLLGVFLAPALANYNINVNDDNNNAGSGQQSVSVNNEHNVANVDNNNGWDSWNSIWDYGNGFAATRLFQKKTCIVHKMNKEVMPSIQSLDALVKEKKLQGKGPGGPPPKGLMYSVNPNKVDDLSKFGKNIANMCRGIPTYMAEEMQEASLFFYSGTCYTTSVLWIVDISFCGDTVEN [Q9NS71]”, the “percentage of EdU-negative” value came to 23 ± 2.2% with MCF7 (setting [4]), 25.4 ± 3.5% in the data set with MCF7 (setting [5]), 4.8 ± 0.55% in the data set with hTERT-HMEC (setting [4]) and 5.56 ± 0.6% in the data set on hTERT-HMEC (setting [5]).
As for “MAGLMTIVTSLLFLGVCAHHIIPTGSVVIPSPCCMFFVSKRIPENRVVSYQLSSRSTCLKAGVIFTTKKGQQFCGDPKQEWVQRYMKNLDAKQKKASPRARAVAVKGPVQRYPGNQTTC”, the “percentage of EdU-negative” value in the data set with MCF7 (setting [6]) worked out at 23.9 ± 1.6%; in the data set on MCF7 (setting [7]), 24.7 ± 0.47%; in the data set on hTERT-HMEC (setting [6]), 4.96 ± 0.78%; with hTERT-HMEC (setting [7]), 5.694 ± 0.035%.
Turning to “MVTSSFPISVAVFALITLQVGTQDSFIAAVYEHAVILPNKTETPVSQEDALNLMNENIDILETAIKQAAEQGARIIVTPEDALYGWKFTRETVFPYLEDIPDPQVNWIPCQDPHRFGHTPVQARLSCLAKDNSIYVLANLGDKKPCNSRDSTCPPNGYFQYNTNVVYNTEGKLVARYHKYHLYSEPQFNVPEKPELVTFNTAFGRFGIFTCFDIFFYDPGVTLVKDFHVDTILFPTAWMNVLPLLTAIEFHSAWAMGMGVNLLVANTHHVSLNMTGSGIYAPNGPKVYHYDMKTELGKLLLSEVDSHPLSSLAYPTAVNWNAYATTIKPFPVQKNTFRGFISRDGFNFTELFENAGNLTVCQKELCCHLSYRMLQKEENEVYVLGAFTGLHGRRRREYWQVCTLLKCKTTNLTTCGRPVETASTRFEMFSLSGTFGTEYVFPEVLLTEIHLSPGKFEVLKDGRLVNKNGSSGPILTVSLFGRWYTKDSLYSSCGTSNSAITYLLIFILLMIIALQNIVML”, the “percentage of EdU-negative” value was 25.8 ± 0.6% in the data set on MCF7 (setting [8]), 28.11 ± 0.25% in the data set with MCF7 (protein concentration 0.185 µM), 3.63 ± 0.35% with hTERT-HMEC (setting [8]) and 6.84 ± 0.58% in the data set on hTERT-HMEC (protein concentration 0.185 µM).
Turning to “MAAEPLTELEESIETVVTTFFTFARQEGRKDSLSVNEFKELVTQQLPHLLKDVGSLDEKMKSLDVNQDSELKFNEYWRLIGELAKEIRKKKDLKIRKK”, the “percentage of EdU-negative” value in the data set on MCF7 (setting [3]) was determined as 27.3 ± 1.9%; in the data set on MCF7 (protein concentration 0.225 µM), 25.4 ± 0.45%; in the data set with hTERT-HMEC (setting [3]) it was 4.78 ± 0.24%; in the data set on hTERT-HMEC (protein concentration 0.225 µM), 5.02 ± 0.53%.
Consider “MARMGLAGAAGRWWGLALGLTAFFLPGVHSQVVQVNDSMYGFIGTDVVLHCSFANPLPSVKITQVTWQKSTNGSKQNVAIYNPSMGVSVLAPYRERVEFLRPSFTDGTIRLSRLELEDEGVYICEFATFPTGNRESQLNLTVMAKPTNWIEGTQAVLRAKKGQDDKVLVATCTSANGKPPSVVSWETRLKGEAEYQEIRNPNGTVTVISRYRLVPSREAHQQSLACIVNYHMDRFKESLTLNVQYEPEVTIEGFDGNWYLQRMDVKLTCKADANPPATEYHWTTLNGSLPKGVEAQNRTLFFKGPINYSLAGTYICEATNPIGTRSGQVEVNITEFPYTPSPPEHGRRAGPVPTAIIGGVAGSILLVLIVVGGIVVALRRRRHTFKGDYSTKKHVYGNGYSKAGIPQHHPPMAQNLQYPDDSDDEKKAGPLGGSSYEEEEEEEEGGGGGERKVGGPHPKYDEDAKRPYFTVDEAEARQDGYGDRTLGYQYDPEQLDLAENMVSQNDGSFISKKEWYV”, for which the “percentage of EdU-negative” value with MCF7 (setting [3]) came to 25.4 ± 4.4%; in the data set on MCF7 (protein concentration 0.225 µM), 23.9 ± 2.4%; in the data set with hTERT-HMEC (setting [3]), 4.56 ± 1.1%; in the data set with hTERT-HMEC (protein concentration 0.225 µM), 4.77 ± 0.62%.
